In article PMC5458272 (2017):

Biological target: GST
Assay: SPR

Kd: > 5 µM
B1: Recombinant His-tagged Aurora-A (enzyme)
chain: MDRSKENCISGPVKATAPVGGPKRVLVTQQFPCQNPLPVNSGQAQRVLCPSNSSQRIPLQAQKLVSSHKPVQNQKQKQLQATSVPHPVSRPLNNTQKSKQPLPSAPENNPEEELASKQKNEESKKRQWALEDFEIGRPLGKGKFGNVYLAREKQSKFILALKVLFKAQLEKAGVEHQLRREVEIQSHLRHPNILRLYGYFHDATRVYLILEYAPLGTVYRELQKLSKFDEQRTATYITELANALSYCHSKRVIHRDIKPENLLLGSAGELKIADFGWSVHAPSSRRTTLCGTLDYLPPEMIEGRMHDEKVDLWSLGVLCYEFLVGKPPFEANTYQETYKRISRVEFTFPDFVTEGARDLISRLLKHNPSQRPMLREVLEHPWITANSSKPSNCQNKESASKQS
